Laboratory results taken from patent publication US20110165161A1, “ANTI-EPCAM ANTIBODIES THAT INDUCE APOPTOSIS OF CANCER CELLS AND METHODS USING SAME” (priority 2009, published 2011).

T1: EGFI-Cr1 N43A (human, UniProt P16422 24-63)
T1 construct: not shown: the constant region of human immunoglobulin gamma 1 heavy chain (Cr1) fused at the C-terminus
T1 chain: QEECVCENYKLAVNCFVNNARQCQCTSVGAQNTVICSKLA

T2: EGFI-Cr1 T49A (human, UniProt P16422 24-63)
T2 construct: not shown: the constant region of human immunoglobulin gamma 1 heavy chain (Cr1) fused at the C-terminus
T2 chain: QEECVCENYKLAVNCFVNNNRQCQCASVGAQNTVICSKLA

T3: EGFI-Cr1 N42E (human, UniProt P16422 24-63)
T3 construct: not shown: the constant region of human immunoglobulin gamma 1 heavy chain (Cr1) fused at the C-terminus
T3 chain: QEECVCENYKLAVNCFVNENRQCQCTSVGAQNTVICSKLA

T4: EGFI-Cr1 Q24A (human, UniProt P16422 25-63)
T4 construct: not shown: The fused constant region of human immunoglobulin gamma 1 heavy chain (Cr1)
T4 chain: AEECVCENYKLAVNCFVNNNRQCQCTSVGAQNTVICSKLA

T5: EGFI-Cr1 E26D (human, UniProt P16422 24-63)
T5 construct: not shown: The fused constant region of human immunoglobulin gamma 1 heavy chain (Cr1)
T5 chain: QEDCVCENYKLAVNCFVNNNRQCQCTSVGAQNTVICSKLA

T6: EGFI-Cr1 Q45A (human, UniProt P16422 24-63)
T6 construct: not shown: the constant region of human immunoglobulin gamma 1 heavy chain (Cr1) fused at the C-terminus
T6 chain: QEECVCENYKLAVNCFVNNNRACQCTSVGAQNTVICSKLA

T7: EGFI-Cr1 Q47A (human, UniProt P16422 24-63)
T7 construct: not shown: the constant region of human immunoglobulin gamma 1 heavy chain (Cr1) fused at the C-terminus
T7 chain: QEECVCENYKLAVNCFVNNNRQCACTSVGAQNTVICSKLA

T8: EGFI-Cr1 E25K (human, UniProt P16422 24-63)
T8 construct: not shown: The fused constant region of human immunoglobulin gamma 1 heavy chain (Cr1)
T8 chain: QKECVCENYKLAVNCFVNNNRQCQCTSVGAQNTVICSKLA

T9: EGFI-Cr1 N37R (human)
T9 construct: not shown: The fused constant region of human immunoglobulin gamma 1 heavy chain (Cr1)
T9 chain: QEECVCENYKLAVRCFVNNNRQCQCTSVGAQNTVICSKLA

T10: EGFI-Cr1 F39A (human, UniProt P16422 24-63)
T10 construct: not shown: The fused constant region of human immunoglobulin gamma 1 heavy chain (Cr1)
T10 chain: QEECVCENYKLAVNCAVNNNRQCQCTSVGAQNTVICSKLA

T11: EGFI-Cr1 N41A (human, UniProt P16422 24-63)
T11 construct: not shown: The fused constant region of human immunoglobulin gamma 1 heavy chain (Cr1)
T11 chain: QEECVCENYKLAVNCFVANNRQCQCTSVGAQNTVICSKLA

T12: EGFI-Cr1 A35T (human, UniProt P16422 24-63)
T12 construct: not shown: The fused constant region of human immunoglobulin gamma 1 heavy chain (Cr1)
T12 chain: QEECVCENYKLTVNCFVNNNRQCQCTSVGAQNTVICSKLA

T13: EGFI-Cr1 R44G (human, UniProt P16422 24-63)
T13 construct: not shown: the constant region of human immunoglobulin gamma 1 heavy chain (Cr1) fused at the C-terminus
T13 chain: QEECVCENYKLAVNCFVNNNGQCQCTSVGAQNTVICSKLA

T14: EGFI-Cr1 V40E (human)
T14 construct: not shown: The fused constant region of human immunoglobulin gamma 1 heavy chain (Cr1)
T14 chain: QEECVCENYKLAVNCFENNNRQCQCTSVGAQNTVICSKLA


What was measured:
[1] = system: COLO 205 colon cancer cells; test: Cytotoxicity of anti-EpCAM antibodies in combination with oxaliplatin in COLO 205; format: cell-based, human; conditions: No mAb added, 24 hr
Protocol: Oxaliplatin, combined with infusional administration of 2 other chemotherapy drugs, 5-fluorouracil/leucovorin (5-FU/LV), is now considered as one of the as first-line treatments for people with advanced carcinoma of the colon or rectum (André et al. (2004) N Engl J Med 350(23):2343-2351). To test the cytotoxicity of anti-EpCAM antibodies in the presence of oxaliplatin, 1×10^5 COLO 205 cells were seeded to each well of a 96-well plate, and then 0.03, 0.3 and 3 μg/ml of anti-EpCAM or control (9E10) mAbs in combination with oxaliplatin at concentration of 0, 0.01, 0.1, and 1 μg/ml diluted in the medium were added into the cells. After a 24-hr incubation at 37° C., the cells were stained with 0.3 μl of FITC-conjugated Annexin V (Strong Biotech Corp. Cat. No. AVK250) in 50 μl Annexin V binding buffer (Strong Biotech Corp. Cat. No. AVK250) at RT for 20 min. After wash, the cells were then stained with 0.3 μl of propidium iodide in 200 μl Annexin V binding buffer. Annexin V and Propidium Iodide were used as a joint indicator for measuring cell death. The data were acquired with BD FACSCalibur based on an acquisition of 3,000-5,000 cells and analyzed with the Cell Quest software. The combined percentages of the Annexin V+/PI+, Annexin V+/PI− and Annexin V−/PI+populations were considered as dead cells.

[2] = molecular target: T1, EGFI-Cr1 N43A; test: direct ELISA, coated EGFI-Cr1 fusion, 0.1 µg/ml antibody
Protocol: (§1) A direct ELISA was used for testing the reactivity of anti-EpCAM antibodies toward variant EpCAM mutants. Briefly, purified EpCAM EGF-1 fusion proteins (WT, Q24A, E25K, E26D, A35T, N37R, F39A, V40E, N41A, N42E, N43A, R44G, Q45A, Q47A or T49A) and irrelevant control (CEA-Cr1) were pre-diluted to 0.5 μg/ml in coating buffer (8.4 g NaHCO₃, 3.4 g Na₂CO₃ in 1 L H₂O, pH 9.5) and aliquoted (100 μl/well) into 96-well plates. […] Plates were then washed 3 times with PBST followed by the addition of the enzyme substrate TMB (BD Biosciences, Cat. No. 555214). […] The optical densities at 450 nm wavelength were measured on an ELISA plate reader.

[3] = molecular target: T15, EGFI-Cr1 wild type (first EGF-like repeat of human EpCAM fused to the constant region of human immunoglobulin … (human, UniProt P01857-1 99-330 = IgG part)); test: as above
T15 construct: cDNA covered aa 1-63; Expressed in COS-7 cells; also called WT; EpCAM EGF-1 fusion protein WT
Protocol: as §1

[4] = molecular target: T2, EGFI-Cr1 T49A; test: as above
Protocol: as §1

[5] = molecular target: T3, EGFI-Cr1 N42E; test: as above
Protocol: as §1

[6] = molecular target: T4, EGFI-Cr1 Q24A; test: as above
Protocol: as §1

[7] = molecular target: T5, EGFI-Cr1 E26D; test: as above
Protocol: as §1

[8] = molecular target: T6, EGFI-Cr1 Q45A; test: as above
Protocol: as §1

[9] = molecular target: T7, EGFI-Cr1 Q47A; test: as above
Protocol: as §1

[10] = molecular target: T8, EGFI-Cr1 E25K; test: as above
Protocol: as §1

[11] = molecular target: T9, EGFI-Cr1 N37R; test: as above
Protocol: as §1

[12] = molecular target: T10, EGFI-Cr1 F39A; test: as above
Protocol: as §1

[13] = molecular target: T11, EGFI-Cr1 N41A; test: as above
Protocol: as §1

[14] = molecular target: T12, EGFI-Cr1 A35T; test: as above
Protocol: as §1

[15] = molecular target: T13, EGFI-Cr1 R44G; test: as above
Protocol: as §1

[16] = molecular target: T14, EGFI-Cr1 V40E; test: as above
Protocol: as §1

Molecule | % of Annexin V + PI staining (untreated background subtracted) ([1]; oxaliplatin 0.01 μg/ml) [%] | % of Annexin V + PI staining (untreated background subtracted) ([1]; oxaliplatin 0.1 μg/ml) [%] | % of Annexin V + PI staining (untreated background subtracted) ([1]; oxaliplatin 1 μg/ml) [%] | relative binding activity (% of WT) [2] [%] | relative binding activity (% of WT) [3] [%] | relative binding activity (% of WT) [4] [%] | relative binding activity (% of WT) [5] [%] | relative binding activity (% of WT) [6] [%] | relative binding activity (% of WT) [7] [%] | relative binding activity (% of WT) [8] [%] | relative binding activity (% of WT) [9] [%] | relative binding activity (% of WT) [10] [%] | relative binding activity (% of WT) [11] [%] | relative binding activity (% of WT) [12] [%] | relative binding activity (% of WT) [13] [%] | relative binding activity (% of WT) [14] [%] | relative binding activity (% of WT) [15] [%] | relative binding activity (% of WT) [16] [%]
O=C1[O][Pt]2([NH][C@@H]3CCCC[C@H]3[NH]2)[O]C1=O [Oxaliplatin, reference compound] | 1 | 1 | 2 | – | – | – | – | – | – | – | – | – | – | – | – | – | – | –
murine monoclonal antibody 1G10 (antibody, mouse IgG1, V domains shown, Mouse IgG1, kappa, from hybridoma; also called m290-1G10) VH: QIQLVQSGPELKKPGETVKISCKASGYTFTNYGMNWVKQAPGKGFKWMGWINTYTGEPTYADDFKGRFAFSLETSASTAYLQINNLQNEDMATYFCARWGYDFDYWGQGTTLTVSS VL: QIVLTQSPAIMSSSPGEKVTMTCSASSSISYMNWYQQKPGTSPKRWIYDTSKLASGVPARFSGSGSGTSYSLTISSMEAEDAATYYCHQRSSYPYTFGGGTKLEIKR | – | – | – | 96 | 100 | 17 | 93 | 44 | 1 | 80 | 49 | 3 | 1 | 78 | 23 | 89 | 95 | 71
murine monoclonal antibody 1F10 (antibody, mouse IgG1, V domains shown, Mouse IgG1, lambda 1, from hybridoma; also called m338-1F10.3) VH: EVKLLESGGGLVQPGGSLKLSCAASGFDFSRYWMSWVRQAPGKGLEWIGEINPDSSTMNYTPSLKDKFIISRDNAKNTLYLQMSKVRSEDTALYYCARGAYAMDYWGQGTSVTVSS VL: QAVVTQESALTTSPGETVTLTCRSSTGAVTTSNNANWVQEKPDHLFTGLIGATNNRAPGVPARFSGSLIGDKAALTITGAQTEDEAIYFCALWYINHWVFGGGTKLTVLG | – | – | – | 100 | 100 | 94 | 95 | 93 | 98 | 84 | 92 | 10 | 97 | 81 | 63 | 93 | 1 | 1
